Test results: paper PMC2137869
Where “and” joins values, the source holds several entries; their conditions need not be identical. Equal values may be shown once.

Legend:
[1] = molecular target: H chains of non-specific rabbit gamma2 globulin (rabbit); test: sucrose density gradient ultracentrifugation
[2] = molecular target: H chains of rabbit gamma2 globulin, first Sephadex G-100 peak (Fraction H) (rabbit); test: sucrose density gradient ultracentrifugation

per cent of the H chains in the 7S peak [1]: 60 per cent and 70 per cent
per cent of the I131 label (L chains) in the >7S fraction [2]: 9 per cent
Substance: L chains of non-specific rabbit gamma2 globulin
